Biological target: α-synuclein 1-140 (UniProt P37840)
Experiment: membrane pelleting, Western blot of dimers/trimers
Details: reference: WT (unphosphorylated) α-synuclein; sites S129

other: oligomer/monomer ratio: stronger; reference 0.22 ± 0.07
Substance: α-synuclein 1-140 (from UniProt P37840) pS129 α-synuclein

Reference: article PMC10881165
